B1: C1orf137 (parent)
chain: RQHHHQSSFPGSLPQETNLTLKVC
B2: SEC22B (parent)
chain: AKQLFRKLNEQSPTRCTLEAGAMT

Variants of: B1
Assay: protein stability index of a GFP-peptide fusion (GPS, HEK-293T) (PSI 1-6); higher = more stable
Settings: c terminus: a fixed tail appended
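Also: lentivirally expressed fusions sorted by FACS into six bins by GFP to DsRed ratio, PSI derived from sequencing read proportions per bin multiplied by bin number.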

Protein stability index of substitutions, site by site:
C24: I 1.9, K 4.11, L 3.74, M 2.44, N 3.7, P 3.51, Q 3.37, R 4.68, S 3.41, T 3.37, V 2.29, W 2.9, Y 2.22

Variants of: B2
Assay: as above
Settings: c terminus: a fixed tail appended

Protein stability index, by site and new letter:
A1: C 2.09, D 2.98, E 3.12, F 2.18, G 2.26, H 2.23, I 1.5, K 2.77, L 2.07, M 1.6, N 2.22, P 2.52, Q 2.44, R 2.23, S 2.46, T 2.3, V 2.16, Y 1.89
K2: A 2.13, C 1.7, D 2.42, E 2.92, F 1.72, G 2.77, H 1.94, I 1.43, L 2.1, M 1.8, N 2.72, P 2.57, Q 2, R 2.76, S 2.4, T 1.83, V 1.54, W 2.92, Y 2.24
Q3: A 2.2, C 2.39, D 2.3, E 2.51, F 2.18, G 2.39, H 1.93, I 1.77, K 2.02, L 2.08, M 1.94, N 3.08, P 2.5, R 1.93, S 1.88, T 2.59, V 2.11, W 2.53, Y 1.55
L4: A 2.73, C 2.77, D 3.27, E 3.62, F 1.89, G 2.94, H 3.12, I 1.99, K 2.89, M 2.4, N 2.75, P 3.07, Q 2.68, R 2.96, S 3.44, T 3.27, V 2.07, W 2.02, Y 2.32
F5: A 3.67, C 2.55, D 3.37, E 2.97, G 3.62, H 2.89, I 2.3, K 3.47, L 2.48, M 2.62, N 3.07, P 3.46, Q 3.23, R 3.22, S 3.44, T 2.75, V 2.95, W 1.94, Y 2.28
R6: A 2.14, C 2.42, D 2.67, E 2.46, F 1.49, G 2.36, H 2.46, I 1.67, K 2.07, L 2.99, M 1.75, N 2.05, P 2.51, Q 2.67, S 2.53, T 2.27, V 2.31, W 2.12, Y 2.15
K7: A 1.97, C 2.82, D 2.7, E 2.89, F 1.67, G 2.24, H 2.64, I 1.81, L 1.69, M 1.83, N 2.47, P 3.33, Q 2.25, R 2, S 2.31, T 2.54, V 2.47, Y 1.52
L8: A 2.91, C 2.35, D 3.66, E 3.13, F 2, G 2.49, H 2.64, I 2.1, K 3.07, M 2.55, N 2.49, P 2.82, Q 3.08, R 3.84, S 2.35, T 2.89, V 3.09, W 3.19, Y 1.91
N9: A 1.95, C 1.92, D 2.98, E 3.56, F 2.57, G 2.47, H 1.84, I 2.13, K 2.58, L 1.35, M 1.85, P 2.59, Q 2.5, R 2.88, S 1.8, T 1.97, V 1.39, W 3.44, Y 2.6
E10: A 1.88, C 1.41, D 2.18, F 2.99, G 2.13, H 2, I 2.7, K 1.65, L 1.08, M 2.72, N 1.95, P 1.34, Q 1.54, R 2.22, S 2.89, T 2.31, V 1.81, W 1.56, Y 3.1
Q11: A 1.77, C 2.13, D 2.44, E 2.85, F 1.65, G 2.14, H 1.99, I 1.71, K 1.96, L 1.38, M 2.26, N 2.22, P 2.09, R 1.41, S 2.1, T 1.82, V 1.48, W 1.98, Y 1.35
S12: A 1.88, C 2.87, D 3.51, E 3.46, F 2.05, G 2.14, H 2.13, I 1.86, K 1.84, L 2.84, M 2.37, N 1.93, P 1.68, Q 2.16, R 1.4, T 1.96, V 1.45, W 1.77, Y 2.43
P13: A 2.48, C 1.53, D 3.06, E 2.81, F 1.77, G 1.96, H 1.7, I 1.61, K 1.88, L 2.08, M 1.82, N 1.86, Q 1.98, R 2.73, S 1.58, T 2.14, V 2.46, Y 1
T14: A 1.68, C 3.02, D 3.27, E 3.53, F 1.63, G 1.74, H 1.81, I 2.55, K 2.41, L 1.94, M 1.79, N 1.98, P 2.35, Q 1.86, R 2.38, S 1.89, V 2.06, W 2.01, Y 1.99
R15: A 3.03, C 2.8, D 4.3, E 2.81, F 2.41, G 3.15, H 3.44, I 2.76, K 3.2, L 3.03, M 2.71, N 3.19, P 3, Q 3.55, S 2.44, T 2.67, V 3.01, W 1.97, Y 2.82
C16: A 3.07, D 3.93, E 3.85, F 2.15, G 3.93, H 3.47, I 3.12, K 2.95, L 3.19, M 3.08, N 3.74, P 3.96, Q 3.47, R 3.27, S 3.66, T 3.64, V 2.53, W 2.52, Y 2.79
T17: A 1.81, C 2.4, D 3.48, E 3.23, F 1.6, G 1.69, H 2, I 1.86, K 1.94, L 2.13, M 2.46, N 2.22, P 2.77, Q 2.4, R 2.69, S 1.81, V 2.18, W 2.28, Y 1.61
L18: A 3.25

From the supplement of paper PMC10567573
